Experimental data from US20230416341A1, “IMPROVED THROMBIN INHIBITORS FOR TREATMENT OF THROMBOEMBOLIC CONDITIONS” (priority 2020, published 2023).

Columns and labels:
[1] = target: T1, human α-thrombin (Haematologic Technologies) (human), P00734; test: thrombin inhibition; sulfated at Y32; conditions: chains peptide; modification not given
[2] = target: T1, human α-thrombin (Haematologic …); test: inhibition of amidolytic activity of human α-thrombin (0.2 nM enzyme, chromogenic substrate Tos-Gly-Pro-Arg-pNA), tight-binding Morrison fit
[3] = target: T1, human α-thrombin (Haematologic …); test: thrombin inhibition; sulfated at Y35; conditions: chains peptide; modification not given
[4] = target: T1, human α-thrombin (Haematologic …); test: thrombin inhibition; unsulfated; conditions: chains peptide; modification not given
[5] = target: T1, human α-thrombin (Haematologic …); test: inhibition of amidolytic activity of human α-thrombin; reference is unsulfated SEQ ID No:1
[6] = target: T1, human α-thrombin (Haematologic …); test: thrombin inhibition; sulfated at Y32 and Y35; conditions: chains peptide; modification not given
[7] = target: T1, human α-thrombin (Haematologic …); test: thrombin inhibition; sulfated at Y33; conditions: chains peptide; modification not given
[8] = target: T1, human α-thrombin (Haematologic …); test: thrombin inhibition; sulfated at Y36; conditions: chains peptide; modification not given
[9] = target: T1, human α-thrombin (Haematologic …); test: inhibition of amidolytic activity of human α-thrombin; reference is unsulfated SEQ ID No:2
[10] = target: T1, human α-thrombin (Haematologic …); test: thrombin inhibition; sulfated at Y33 and Y36; conditions: chains peptide; modification not given
[11] = target: T1, human α-thrombin (Haematologic …); test: thrombin inhibition; unsulfated; unit from column head of Figure 1 table; conditions: chains peptide; modification not given

B1: SEQ ID No:1 (MDL-2) Y32 (sulfated at Y32) (peptide)
chain: YPESDSAKDDGNQEKEKALLVKVQERSDDGDYDEYDNDETTHTPDPSAPTARPRIREHQA
[1]
  Ki: 1.99 nM
[2]
  Ki: < 3 nM

B2: SEQ ID No:1 (MDL-2) Y35 (sulfated at Y35) (peptide)
chain: YPESDSAKDDGNQEKEKALLVKVQERSDDGDYDEYDNDETTHTPDPSAPTARPRIREHQA
[3]
  Ki: 2.77 nM
[2]
  Ki: < 3 nM

B3: SEQ ID No:1 (MDL-2) Un (unsulfated) (protein)
chain: YPESDSAKDDGNQEKEKALLVKVQERSDDGDYDEYDNDETTHTPDPSAPTARPRIREHQA
[4]
  Ki: 27.2 nM

B4: SEQ ID No:1 (MDL-2) DS (sulfated at Y32 and Y35) (peptide)
peptide: YPESDSAKDDGNQEKEKALLVKVQERSDDGDYDEYDNDETTHTPDPSAPTARPRIREHQA
modifications: not checked
[5]
  fold more potent than the unsulfated counterpart: > 100 fold
[6]
  Ki: 0.156 nM
[2]
  Ki: < 3 nM

B5: SEQ ID No:2 (MDL-1) Y33 (sulfated at Y33) (peptide)
peptide: YPERDSAKDGNEEQERALPVNVQERGEVADADYDDYDEEGTTPTVDPTAQTARPRLQGNQS
modifications: not checked
[2]
  Ki: < 20 nM
[7]
  Ki: 3.59 nM

B6: SEQ ID No:2 (MDL-1) Y36 (sulfated at Y36) (peptide)
peptide: YPERDSAKDGNEEQERALPVNVQERGEVADADYDDYDEEGTTPTVDPTAQTARPRLQGNQS
modifications: not checked
[2]
  Ki: < 20 nM
[8]
  Ki: 17.6 nM

B7: SEQ ID No:2 (MDL-1) DS (sulfated at Y33 and Y36) (peptide)
peptide: YPERDSAKDGNEEQERALPVNVQERGEVADADYDDYDEEGTTPTVDPTAQTARPRLQGNQS
modifications: not checked
[9]
  fold more potent than the unsulfated counterpart: 10 fold
[2]
  Ki: < 20 nM
[10]
  Ki: 2.06 nM

B8: SEQ ID No:2 (MDL-1) Un (unsulfated) (protein)
chain: YPERDSAKDGNEEQERALPVNVQERGEVADADYDDYDEEGTTPTVDPTAQTARPRLQGNQS
[11]
  Ki: 73.8 nM
